Experimental data as given in patent US20180105597A1.

Experiments:
[1] = target: human C1q (human) (UniProt P02745); assay: solid phase C1q binding ELISA, antibody coated in a titration, C1q added
[2] = target: FcγR2a(H) (human) (UniProt P12318); assay: solid phase binding assay (Meso Scale), receptor coated, antibody titrated
[3] = target: FcγR1 (human) (UniProt P12314); assay: as above
[4] = target: FcγR3a (V) (human) (UniProt P08637); assay: as above
[5] = target: human C1q (human) (UniProt P02745); assay: cell-based or functional assay

human C1q (human), sequence (P02745 23-245 limits assumed, chain 1 of 3): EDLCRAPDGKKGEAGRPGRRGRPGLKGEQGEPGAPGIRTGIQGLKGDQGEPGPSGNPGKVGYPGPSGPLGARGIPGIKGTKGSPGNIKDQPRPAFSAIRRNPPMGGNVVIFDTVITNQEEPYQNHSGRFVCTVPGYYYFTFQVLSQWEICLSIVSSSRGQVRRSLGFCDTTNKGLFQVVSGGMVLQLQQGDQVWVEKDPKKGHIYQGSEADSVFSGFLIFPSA
human C1q (human), sequence (P02746 28-253 limits assumed, chain 2 of 3, further chain): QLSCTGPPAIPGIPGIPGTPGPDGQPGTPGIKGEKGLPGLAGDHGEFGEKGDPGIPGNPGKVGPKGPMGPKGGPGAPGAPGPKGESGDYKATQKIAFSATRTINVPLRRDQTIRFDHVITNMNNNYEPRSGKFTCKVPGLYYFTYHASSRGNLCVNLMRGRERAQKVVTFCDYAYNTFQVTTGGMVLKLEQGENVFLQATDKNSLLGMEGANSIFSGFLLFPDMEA
human C1q (human), sequence (P02747 29-245 limits assumed, chain 3 of 3, further chain): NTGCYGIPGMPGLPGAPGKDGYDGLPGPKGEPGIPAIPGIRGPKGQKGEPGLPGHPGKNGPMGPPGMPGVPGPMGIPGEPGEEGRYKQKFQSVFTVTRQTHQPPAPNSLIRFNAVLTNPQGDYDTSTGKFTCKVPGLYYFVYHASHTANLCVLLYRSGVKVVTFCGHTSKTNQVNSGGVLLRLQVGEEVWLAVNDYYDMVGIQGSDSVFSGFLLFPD
FcγR2a(H) (human), sequence (P12318 36-218): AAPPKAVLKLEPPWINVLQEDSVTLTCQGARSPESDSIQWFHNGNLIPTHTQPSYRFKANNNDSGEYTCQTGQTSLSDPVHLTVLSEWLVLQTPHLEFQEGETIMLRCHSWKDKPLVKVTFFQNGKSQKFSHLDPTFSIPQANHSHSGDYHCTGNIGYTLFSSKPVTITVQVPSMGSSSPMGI
FcγR1 (human), sequence (P12314 16-288): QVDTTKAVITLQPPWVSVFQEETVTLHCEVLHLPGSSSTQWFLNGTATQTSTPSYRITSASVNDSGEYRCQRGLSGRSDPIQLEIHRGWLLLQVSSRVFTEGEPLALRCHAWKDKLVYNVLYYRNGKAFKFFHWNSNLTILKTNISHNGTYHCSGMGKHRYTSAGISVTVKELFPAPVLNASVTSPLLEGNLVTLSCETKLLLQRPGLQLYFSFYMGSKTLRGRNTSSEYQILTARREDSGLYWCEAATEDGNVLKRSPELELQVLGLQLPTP
FcγR3a (V) (human), sequence (P08637 17-208 F176V): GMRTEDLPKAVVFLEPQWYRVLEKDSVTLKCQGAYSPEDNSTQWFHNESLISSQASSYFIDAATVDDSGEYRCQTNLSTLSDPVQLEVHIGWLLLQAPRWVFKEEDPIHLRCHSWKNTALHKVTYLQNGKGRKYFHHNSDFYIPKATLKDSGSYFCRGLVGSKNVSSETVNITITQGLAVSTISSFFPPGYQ

- EC50 [1]: 19 nM
- EC50 [2]: 48 nM
- EC50 [3]: 0.58 nM
- EC50 [4]: 5.7 nM
- CDC activity EC50 (nM), BxPC3 target cells, human complement [5]: > 200 nM
- CDC activity EC50 (nM), HEK293 target cells, human complement [5]: > 200 nM
- CDC activity EC50 (nM), MDA-MB-231 target cells, human complement [5]: > 200 nM
- CDC activity EC50 (nM), TGFRβII-HEK target cells, human complement [5]: > 200 nM
Substance: LY3022859 (antibody)
